{"source": "paper PMC6261967", "key": {"[1]": {"target": "the ribosome (40S + 60S subunits) (human (endogenous in HeLa)) (UniProt P62753)", "assay": "co-sedimentation; puromycin-treated crude ribosomal preparation resolved by sucrose-gradient centrifugation; ribosome fractions combined for western blot (Supplementary Fig. S1)"}, "[2]": {"target": "40S ribosomal subunit (human (endogenous in HeLa)) (UniProt P62753)", "assay": "co-sedimentation; ribosome fractions from HeLa cells, first and second 10-40% sucrose gradient, 20 mM Tris-HCl pH 7.5, 500 mM KCl, 4 mM magnesium acetate, 2 mM DTT, 4 °C; fractions and the purified subunits blotted for PABP, without GST-Paip2 treatment"}, "[3]": {"target": "60S ribosomal subunit (human (endogenous in HeLa)) (UniProt P40429)", "assay": "co-sedimentation; ribosome fractions from HeLa cells, first and second 10-40% sucrose gradient, 20 mM Tris-HCl pH 7.5, 500 mM KCl, 4 mM magnesium acetate, 2 mM DTT, 4 °C; fractions and the purified subunits blotted for PABP, without GST-Paip2 treatment"}}, "data": [{"substance": "poly(A)-binding protein (PABP), endogenous in HeLa ribosome preparations (from UniProt P11940 1-636) (natural protein)", "values": [{"measurement": "molar ratio of PABP to the ribosome (40S + 60S subunits) (western blot)", "setting": "[1]", "result": 2}, {"measurement": "molar ratio of subunit to PABP in the purified subunit (western blot)", "setting": "[2]", "result": 10}, {"measurement": "molar ratio of subunit to PABP in the purified subunit (western blot)", "setting": "[3]", "result": 10}]}]}
